# Test results reported in paper PMC8809517, “Cofactor-independent RNA editing by a synthetic S-type PPR protein”.
# T1: GFP-9S library array, motif 4 ND N98L;D124H (synthetic construct, N98L;D124H)
# T1 chain: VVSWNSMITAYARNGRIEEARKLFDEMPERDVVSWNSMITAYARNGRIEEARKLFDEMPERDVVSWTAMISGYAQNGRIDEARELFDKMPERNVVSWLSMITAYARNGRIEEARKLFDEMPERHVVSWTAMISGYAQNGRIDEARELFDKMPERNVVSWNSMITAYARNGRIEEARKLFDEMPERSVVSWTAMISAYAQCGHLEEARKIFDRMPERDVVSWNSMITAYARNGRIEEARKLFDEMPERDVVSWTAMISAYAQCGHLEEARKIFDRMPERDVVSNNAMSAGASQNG
# T2: GFP-9S library array, motif 4 ND N98T;D124Q (synthetic construct, N98T;D124Q)
# T2 chain: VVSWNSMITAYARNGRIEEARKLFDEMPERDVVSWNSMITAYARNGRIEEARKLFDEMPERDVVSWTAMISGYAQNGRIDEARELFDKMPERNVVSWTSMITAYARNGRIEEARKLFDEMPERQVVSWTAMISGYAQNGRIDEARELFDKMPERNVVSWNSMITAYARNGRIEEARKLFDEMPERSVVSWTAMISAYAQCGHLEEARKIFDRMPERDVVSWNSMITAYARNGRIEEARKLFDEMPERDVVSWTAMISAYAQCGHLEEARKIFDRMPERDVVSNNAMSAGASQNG
# T3: GFP-9S library array, motif 4 ND N98A (synthetic construct, N98A)
# T3 chain: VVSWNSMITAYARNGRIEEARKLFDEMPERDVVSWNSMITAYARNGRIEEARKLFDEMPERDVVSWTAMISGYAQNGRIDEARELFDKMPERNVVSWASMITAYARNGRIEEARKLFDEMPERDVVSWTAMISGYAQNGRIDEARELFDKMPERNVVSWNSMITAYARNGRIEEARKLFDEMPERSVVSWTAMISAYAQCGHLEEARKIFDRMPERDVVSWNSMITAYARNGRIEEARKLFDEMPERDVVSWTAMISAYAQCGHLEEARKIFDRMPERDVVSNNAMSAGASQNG
# T4: GFP-9S library array, motif 4 ND N98I;D124C (synthetic construct, N98I;D124C)
# T4 chain: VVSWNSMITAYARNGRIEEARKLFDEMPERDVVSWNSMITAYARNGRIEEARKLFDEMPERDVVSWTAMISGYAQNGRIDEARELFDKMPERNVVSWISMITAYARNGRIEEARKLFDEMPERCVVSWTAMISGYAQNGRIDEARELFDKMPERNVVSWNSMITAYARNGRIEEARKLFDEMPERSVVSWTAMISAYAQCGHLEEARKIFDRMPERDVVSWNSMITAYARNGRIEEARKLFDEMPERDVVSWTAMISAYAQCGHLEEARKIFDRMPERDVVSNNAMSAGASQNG
# T5: GFP-9S library array, motif 4 ND N98R (synthetic construct, N98R)
# T5 chain: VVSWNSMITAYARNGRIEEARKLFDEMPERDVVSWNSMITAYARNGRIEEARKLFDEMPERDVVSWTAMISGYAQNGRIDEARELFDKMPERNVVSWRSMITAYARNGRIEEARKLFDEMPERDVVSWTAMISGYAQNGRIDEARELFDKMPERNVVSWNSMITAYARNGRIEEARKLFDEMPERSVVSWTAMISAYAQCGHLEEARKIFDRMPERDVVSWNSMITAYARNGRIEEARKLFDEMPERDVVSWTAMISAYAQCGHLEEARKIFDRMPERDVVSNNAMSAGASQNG
# Tests used:
# Assay in all cases: high-throughput RNA pulldown from lysate on Ni-NTA beads; HRP: 50 mM Tris pH 8, 150 mM NaCl, 1 mM beta-mercaptoethanol, 50 ug/ml BSA, 3 ug/ml yeast RNA, 0.5% heparin; ITC and FP: Tris pH 8, 200 mM KCl, 5% glycerol; MST: 50 mM Tris pH 8, 200 mM NaCl, 1 mM DTT, BSA, heparin, 0.05% Tween 20
# Settings in all cases: tags: N-terminal His-eGFP
# [1] = biological target: T1, GFP-9S library array, motif 4 ND …
# [2] = biological target: T2, GFP-9S library array, motif 4 ND …
# [3] = biological target: T3, GFP-9S library array, motif 4 ND N98A
# [4] = biological target: T4, GFP-9S library array, motif 4 ND …
# [5] = biological target: T5, GFP-9S library array, motif 4 ND N98R
Binder,Kd ([1]; label: 5' Cy5) [nM],Kd ([2]; label: 5' Cy5) [nM],Kd ([3]; label: 5' Cy5) [nM],Kd ([4]; label: 5' Cy5) [nM],Kd ([5]; label: 5' Cy5) [nM],Kd ([1]; label: 5' IRDye 800CW) [nM],Kd ([2]; label: 5' IRDye 800CW) [nM],Kd ([3]; label: 5' IRDye 800CW) [nM],Kd ([4]; label: 5' IRDye 800CW) [nM],Kd ([5]; label: 5' IRDye 800CW) [nM]
AUUACACGUGA (ssRNA) [Cy5-rpoA],179,157,194,182,207,,,,,
AUUAAACGUGA (ssRNA) [IR-rpoA-A],,,,,,399,107,223,42.5,645
AUUAUACGUGA (ssRNA) [IR-rpoA-U],,,,,,125,194,50.8,32.9,428
AUUAGACGUGA (ssRNA) [Cy5-rpoA-G],196,128,156,90.6,253,,,,,
